Laboratory results reported in patent US8835467B2, “SIR2 regulation” (Albert Einstein College of Medicine of Yeshiva University, priority 2003, dated 2014).

System: NC(=O)c1cccnc1
Test: Sir2 catalyzed base exchange with H4 N-terminal peptide
Format: biochemical, yeast
Conditions: other: 0 mM isonicotinamide

“Yeast Sir2 (Saccharomyces cerevisiae S288C)” gave a Km of 120 µM.
